The record followed here is paper PMC11925332, “Structural Insights and Reaction Profile of a New Unspecific Peroxygenase from Marasmius wettsteinii Produced in a Tandem-Yeast Expression System” (ACS Chemical Biology, 2024).

The target in data set [1] is Recombinant unspecific peroxygenase MweUPO-1 from Marasmius wettsteinii (Marasmius wettsteinii). The experiment in a line: crystal structure; deglycosylated (Endo H) MweUPO-1, 11 mg/mL in 50 mM sodium citrate pH 5.6; sitting-drop vapor diffusion at 18 °C, 10-20% (v/v) PEG 4000, 0.2 M (NH4)2SO4; space group P43212, two molecules per asymmetric unit.
Substrate in data set [2]: COc1cccc(OC)c1O
Kind of data set: purified protein. Type of data set: biochemical, Marasmius wettsteinii. The following applies: 2 mM H2O2; 100 mM potassium phosphate pH 5.0 per table footnote (methods section says phosphate pH 6.0).

Substrate in data set [3]: CCn1c(=NN=c2sc3cc(S(=O)(=O)O)ccc3n2CC)sc2cc(S(=O)(=O)O)ccc21
The experiment in a line: purified protein. Conditions: 2 mM H2O2, 100 mM Britton-Robinson buffer pH 4.0 per table footnote (methods section says phosphate/citrate pH 4.0).

Substrate in data set [4]: COc1ccc(CO)cc1OC
Kind of data set: purified protein. Conditions: 2 mM H2O2; 100 mM potassium phosphate pH 5.0 per table footnote (methods section says phosphate pH 7.0).

For the molecule “Recombinant unspecific peroxygenase MweUPO-1 from Marasmius wettsteinii (enzyme)”, the stoichiometry N in data set [1] came out at 2.

B1: MweUPO-1 (Marasmius wettsteinii) (protein)
chain: SAHPWKAPGPNDSRGPCPGLNTLANHGFLPRNGRNISVPMIVKAGFEGYNVQSDILILAGKVGMLTSREADTISLEDLKLHGTIEHDASLSREDVAIGDNLHFNEAIFTTLANSNPGADVYNISSAAQVQHDRLADSVARNPNVTNTDLTATIRSSESAFYLTVMSAGDPLRGEAPKKFVNVFFQEERMPIKEGWKRSTTPINLPLLGPIIDRITELSDWKPTGDNCGAIVLGPGL
In the case of B1, the Km in data set [2] turned out to be 220 ± 1 µM; in data set [3], 30 ± 3 µM; in data set [4], 260 ± 80 µM. Besides, the results for the kcat in data set [2], in data set [3] and in data set [4] were 61.6 ± 0.85 s⁻¹, 15.5 ± 0.68 s⁻¹ and 22.5 ± 0.73 s⁻¹, respectively. The catalytic efficiency (kcat/Km) in data set [2] was 285000 M⁻¹ s⁻¹; in data set [3], 534000 M⁻¹ s⁻¹; in data set [4] it was 87600 M⁻¹ s⁻¹.

For orientation: stoichiometry N means a count of units in the complex or per binding partner. For orientation: Km means the concentration of substrate that gives half-maximal velocity. What is called kcat is the number of substrate molecules converted per active site and unit of time at saturation. The kcat/Km is the second-order rate constant that governs catalysis at low substrate concentration.
